Reference: article PMC5883317 (Journal of Molecular and Cellular Cardiology, 2018)
Where a chain is given by its changes, count along the chain named. In names and notes the source's numbering stands. One block for each molecule: values may come before it.

Columns and labels:
[1] = molecular target: F-actin (rabbit skeletal actin) (rabbit) (UniProt P68135)
[2] = molecular target: RLC-depleted isolated porcine β-cardiac myosin (porcine) (UniProt P79293); test: reconstitution of RLC-depleted myosin, SDS-PAGE densitometry
[3] = molecular target: cardiac myosin binding protein-C fragment spanning domains C0 to C2 (C0C2) (UniProt Q14896 1-452); test: MST
cardiac myosin binding protein-C fragment spanning domains C0 to C2 (C0C2), sequence (Q14896 1-452): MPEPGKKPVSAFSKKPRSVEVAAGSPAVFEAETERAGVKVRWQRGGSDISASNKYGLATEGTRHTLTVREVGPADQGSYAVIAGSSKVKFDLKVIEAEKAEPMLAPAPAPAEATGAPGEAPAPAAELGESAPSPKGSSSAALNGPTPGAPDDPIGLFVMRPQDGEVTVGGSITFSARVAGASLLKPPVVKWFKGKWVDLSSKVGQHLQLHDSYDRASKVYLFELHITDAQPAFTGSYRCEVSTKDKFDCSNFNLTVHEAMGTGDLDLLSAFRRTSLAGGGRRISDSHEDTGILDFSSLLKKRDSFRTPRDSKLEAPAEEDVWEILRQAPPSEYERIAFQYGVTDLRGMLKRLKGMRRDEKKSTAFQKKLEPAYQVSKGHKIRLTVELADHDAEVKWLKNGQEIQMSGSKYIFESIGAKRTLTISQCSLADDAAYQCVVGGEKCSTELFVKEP

[4] = molecular target: T1, wildtype myosin regulatory light chain (WT-RLC), unlabeled recombinant (human, UniProt P10916 1-166); test: other fluorescence titration
T1 sequence (looked up): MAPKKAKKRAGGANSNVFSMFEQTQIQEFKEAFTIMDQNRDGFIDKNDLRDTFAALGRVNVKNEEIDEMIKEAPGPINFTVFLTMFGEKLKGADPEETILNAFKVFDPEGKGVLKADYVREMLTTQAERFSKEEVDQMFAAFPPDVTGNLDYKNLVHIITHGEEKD

Molecule: porcine β-cardiac myosin fully reconstituted with WT-RLC (from UniProt P79293 1-1935; P10916 1-166) (complex)
KM for F-actin of the F-actin activated myosin ATPase (Michaelis-Menten fit) [1]: 1.5 µM

B1: wildtype myosin regulatory light chain (WT-RLC), unlabeled recombinant (natural protein)
chain: T1 sequence (looked up)
Kd [2]: 4 µM

B3: myosin regulatory light chain with the hypertrophic cardiomyopathy mutation R58Q (R58Q-RLC), unlabeled recombinant (natural protein)
chain: T1 sequence (looked up) with R58Q
Kd [2]: 4 µM

Second part, the molecule after the results:

KM for F-actin of the F-actin activated myosin ATPase (Michaelis-Menten fit) [1]: 2.91 µM
Molecule: porcine β-cardiac myosin fully reconstituted with R58Q-RLC (from UniProt P79293 1-1935; P10916 1-166) (complex)

Kd [3]: 8.6 µM
B2: Alexa 647 labelled WT-RLC (natural protein, human, UniProt P10916 1-166, looked up)
chain: T1 sequence (looked up)
modifications: Alexa 647 (labelled with Alexa 647-NHS; site not stated)

Kd [3]: 9.7 µM
B4: Alexa 647 labelled R58Q-RLC (natural protein, human, UniProt P10916 1-166, looked up)
chain: T1 sequence (looked up) with R58Q
modifications: Alexa 647 (labelled with Alexa 647-NHS; site not stated)

Kd [4]: < 0.5 µM
B5: RLC binding site peptide of the human β-cardiac myosin heavy chain (amino acids 805–837) (peptide)
peptide: ERRDSLLVIQWNIRAFMGVKNWPWMKLYFKIK
